Reference: PMC9349188 (Nature Communications, 2022)

How the values were obtained:
[1] = target: T1, AMC009 SOSIP trimer (SOSIP version not stated, negative stain EM) (HIV-1); test: negative stain electron microscopy; settings: both partners purified
T1 construct: copies: 3 + 3

[2] = target: AMC009 SOSIP trimer (SOSIPv4.2) (HIV-1); test: cell-based or functional assay

| Binder | stoichiometry N [1] [Fabs per trimer] | neutralization of the AMC009 virus (TZM-bl cells), IC50 relative to ACS101 [2] [fold] |
| --- | --- | --- |
| ACS103 Fab (Fab, V domains shown) VH: QVQLVQSGAEVKRPGASVRVSCEASGYRFTAYHIHWLRQAPGQGLEWMGWVNTLTSGVNYGWKFQGRVKMTRERSIDTDTAYLDLSGLRLDDTAVYYCARGNGKSDDERSTYQYFGPWGQGTLVTVSS VL: QTVVTQPASVSGSPGQSITISCAGSSSDIGSYDYVSWYQQHPGKAPKVVIYDVTKRPSDISHRFSASKSGNTASLTISGLQPEDEAQYRCCTYAQTVLCGGGTKLTVL | 3 | – |
| ACS101 Y100fW mutant monoclonal antibody (IgG) (antibody, V domains shown) VH: EVQLLESGAEVKKPGASVRVSCEASGYTFTKYFIHWVRQAPGHGLEWIGWINTLTSGVNYARNFQGRLTLTRDLSTETVYMDLRNLKSDDTAVYYCARGGRGYDEPWGAWTWLDPWGQGSLVTVSS VL: SYELTQPASVSGSPGQSITISCTGSSIGSYDLVSWYQQYPGKAPKVIIFEVSKRPSGVSHRFSGSKSGNTAALTISGLQVEDEAIYHCYSYDDMIIFGGGTRLTVL | – | ~12 |
